# Assay results: patent publication US20070010432A1, “Heat shock protein 90 activator” (priority 2002, published 2007)
# How the values were obtained:
# Yeast Hsp90 = target: T1, Yeast Hsp90 (Saccharomyces cerevisiae, UniProt P02829); test: Malachite green colorimetric ATPase assay, yeast Hsp90; type: biochemical
# T1 construct: made in house; host or cells: E. coli
# Text: The activity of enzymes that release inorganic phosphate can be measured using the reaction of the cationic dye, malachite green, with a phosphomolybdate complex to generate a blue-green colour with an absorbance maximum at 610 nm (Cogan, E. B. et al (1999) Anal. Biochem. 271, 29-35; Baykov, A. A. et al (1988) Anal. Biochem. 171, 266-270; Harder, K. W. et al (1994) Biochem. J. 298, 395-401; Maehama, T. et al (2000) Anal. Biochem. 279, 248-250) as described above.
# Chemicals are of the highest purity commercially available and all aqueous solutions are made up in AR water. • 1. For the full length Aha1, an assay buffer of 45 mM Tris-HCl pH 7.5, 9 mM KCl, 3 mM MgCl may be used. For the C-and N-terminal domain of Aha1 or the Hch1 homologue, an 20 mM Tris-HCl pH 7.5, 4 mM KCl, 1.2 mM MgCl. An assay buffer of 100 mM Tris-HCl, pH 7.4, 20 mM KCl, 6 mM MgCl2 may also be used. Stored at 4° C. • 2. 0.0812% (w/v) malachite green (Sigma M 9636). Stored at room temperature. • 3. […]
# [1] = target: Human hsp90 beta protein (human) (UniProt P08238)
# [2] = target: Hsp90 (species not stated; FIGS. 4 to 6)
# Hsp90 = target: T2, Hsp90 (Saccharomyces cerevisiae, UniProt P02829); test: Effect of Aha1, Aha1 domains or Hch1 concentration on geldanamycin dependent ATPase activity of Hsp90; type: biochemical; conditions: for Effect on Hsp90 ATPase activity (in words): FIG. 5 and 6, 20 mM Tris pH 7.5, 4 mM KCl, 1.2 mM MgCl2
# T2 construct: made in house; host or cells: E. coli (if the yeast protein of the reagent list)
# T2 sequence (P02829 whole entry, the tested form may be a part): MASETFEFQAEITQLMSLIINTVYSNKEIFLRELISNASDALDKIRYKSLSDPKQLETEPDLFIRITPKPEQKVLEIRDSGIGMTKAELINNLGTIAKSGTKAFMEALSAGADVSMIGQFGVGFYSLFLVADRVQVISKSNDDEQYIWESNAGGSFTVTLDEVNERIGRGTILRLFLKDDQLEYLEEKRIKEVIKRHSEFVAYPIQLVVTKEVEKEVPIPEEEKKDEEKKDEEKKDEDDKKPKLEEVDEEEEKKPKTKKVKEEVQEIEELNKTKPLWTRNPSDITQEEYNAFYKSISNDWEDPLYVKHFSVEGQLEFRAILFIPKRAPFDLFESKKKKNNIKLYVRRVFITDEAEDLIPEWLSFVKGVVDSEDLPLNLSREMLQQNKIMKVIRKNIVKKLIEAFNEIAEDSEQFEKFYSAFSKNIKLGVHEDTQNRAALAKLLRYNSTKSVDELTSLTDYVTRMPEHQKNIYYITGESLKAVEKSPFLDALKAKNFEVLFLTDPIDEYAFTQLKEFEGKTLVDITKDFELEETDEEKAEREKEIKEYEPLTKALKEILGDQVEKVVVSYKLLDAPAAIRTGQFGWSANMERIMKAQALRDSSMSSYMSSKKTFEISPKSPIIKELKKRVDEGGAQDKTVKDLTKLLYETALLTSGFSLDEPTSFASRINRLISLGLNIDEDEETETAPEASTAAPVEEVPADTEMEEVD
# Procedure: Half activation is shown to be at […] Aha1. 0.2 μM Aha1 was used in a buffer consisting of 45 mM Tris pH 7.5, 9 mM KCl, 3 mM MgCl2.
# 2 μM Aha1 was used in a buffer consisting of 20 mM Tris pH 7.5, 4 mM KCl, 1.2 mM MgCl2.
# Hch1 and truncated Aha1 polypeptides corresponding to the N and C terminal domains of full-length Aha1 were expressed and purified as described above. The N terminal domain polypeptide (nAha1) consisted of 162 aa from the N terminal MVVNNP to GNDIQV. The C terminal domain polypeptide (cAha1) consisted of the remainder of the Aha1 sequence.
# (§1) Chemicals are of the highest purity commercially available and all aqueous solutions are made up in AR water. • 1. For the full length Aha1, an assay buffer of 45 mM Tris-HCl pH 7.5, 9 mM KCl, 3 mM MgCl may be used. For the C-and N-terminal domain of Aha1 or the Hch1 homologue, an 20 mM Tris-HCl pH 7.5, 4 mM KCl, 1.2 mM MgCl. An assay buffer of 100 mM Tris-HCl, pH 7.4, 20 mM KCl, 6 mM MgCl2 may also be used. Stored at 4° C. • 2. 0.0812% (w/v) malachite green (Sigma M 9636). Stored at room temperature. • 3. 2.32% (w/v) polyvinyl alcohol USP (Sigma P 1097). Stored at room temperature. The polyvinyl alcohol dissolves in boiling water with difficulty and stirring for 2-3 h is required • 4. 5.72% (w/v) ammonium molybdate in 6M hydrochloric acid. Stored at room temperature. • 5. […] Stored at room temperature. • 6. ATP, disodium salt, special quality (Boehringer Mannheim 519979). Stored at 4° C. • 7. E. coli expressed yeast HSP90 protein, purified >95% (10) and stored at −80° C. as 10 μl aliquots containing 0.5 mg of protein. Assay Protocol
# Human Hsp90 = target: T3, Human Hsp90 (Homo sapiens, UniProt P08238); test: Stimulation of human HSP90 ATPase activity by Aha1; type: biochemical
# T3 construct: made in house; host or cells: E. coli BL21 (DE3) pLysS (stated for Aha1 only)
# T3 sequence (P08238 whole entry): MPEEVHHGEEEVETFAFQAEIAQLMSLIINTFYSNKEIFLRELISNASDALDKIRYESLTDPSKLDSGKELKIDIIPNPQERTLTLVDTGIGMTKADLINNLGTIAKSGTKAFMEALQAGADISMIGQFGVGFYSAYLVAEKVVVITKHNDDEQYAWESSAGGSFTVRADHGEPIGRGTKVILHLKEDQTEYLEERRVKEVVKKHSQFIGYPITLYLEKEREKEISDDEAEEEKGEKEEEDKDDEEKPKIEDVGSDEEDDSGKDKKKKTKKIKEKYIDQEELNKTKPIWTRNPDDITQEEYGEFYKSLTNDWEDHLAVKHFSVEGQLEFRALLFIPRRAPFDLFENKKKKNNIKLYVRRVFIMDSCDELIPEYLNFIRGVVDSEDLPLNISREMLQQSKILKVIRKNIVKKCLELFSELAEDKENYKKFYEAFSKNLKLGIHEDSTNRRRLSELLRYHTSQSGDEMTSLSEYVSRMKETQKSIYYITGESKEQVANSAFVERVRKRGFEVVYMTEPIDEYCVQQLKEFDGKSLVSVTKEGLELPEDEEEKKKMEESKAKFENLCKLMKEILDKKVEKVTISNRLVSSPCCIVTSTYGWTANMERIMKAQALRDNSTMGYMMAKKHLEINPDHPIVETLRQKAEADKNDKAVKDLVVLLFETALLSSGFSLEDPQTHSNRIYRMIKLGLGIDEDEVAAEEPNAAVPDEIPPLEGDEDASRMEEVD
# Procedure: Each value is the mean±Sd of n=4 ATP at 0.6 mM.
# Each point is the mean±SD of n=4 ATP at 0.6 mM.
# as §1, with “E. coli expressed yeast HSP90 protein, purified >95% (10) and stored at −80° C. as 10 μl aliquots containing 0.5 mg of protein. Assay Protocol” left out
# Initially, the reagent was a dark brown colour, but after standing at room temperature for about 2 h, this became a golden yellow colour and was ready for use. […]
# To stop the incubation, 80 μl of the malachite green reagent was added to each well and the plate shaken again. […] The absorbance at 620 nm was measured using a suitable plate reader (e.g. Victor^2, PerkinElmer Life Sciences). […]
# T1 sequence (P02829 whole entry): as the sequence (P02829 whole entry, the tested form may be a part) above
molecule,measurement,setting,value
C=CCNC1=C2C[C@@H](C)C[C@H](OC)[C@H](O)[C@@H](C)/C=C(\C)[C@H](OC(N)=O)[C@@H](OC)/C=C\C=C(/C)C(=O)NC(=CC1=O)C2=O [17AAG],Inhibition of yeast HSP90 ATPase activity (in words),Yeast Hsp90,potent inhibitors
"C[C@@H]1C[C@H]2O[C@@H]2/C=C\C=C\C(=O)Cc2c(Cl)c(O)cc(O)c2C(=O)O1 [Radicicol, radicicol]",Inhibition of yeast HSP90 ATPase activity (in words),Yeast Hsp90,potent inhibitors
"Aha1 (YDR214W), full length (from UniProt Q12449)",ATPase activity of human Hsp90 (malachite green assay of inorganic phosphate),[1],2 fold
same,Half maximal activation of Hsp90 (geldanamycin dependent ATPase activity),[2],< 1 µM
Aha1: Aha1 (YDR214W) protein expressed in E. coli; co-activator stimulating Hsp90 ATPase activity,EC50,"Hsp90; FIG. 4, text of results, read-out: Aha1 concentration for half maximal activation of Hsp90",< 1000 nM
same,Increase of the activity of human Hsp90 in the presence of Aha1,Human Hsp90,approximately 2 fold
same,Effect on ATPase activity of increasing concentrations of human HSP90 (in words),"Human Hsp90; FIG. 1, ATP 0.6 mM",significantly increase
"Hch1: homologue of Aha1, expressed and purified like Aha1",Effect on Hsp90 ATPase activity (in words),Hsp90,"activate Hsp90 ATPase activity, but to a lesser extent than the full length Aha1 polypeptide"
C terminal domain of Aha1: truncated Aha1 polypeptide consisting of the remainder of the Aha1 sequence (protein) PESQVKSNYTRGNQKSSFTEIKDSASKPKKNALPSSTSTSAPVSSTNKVPQNGSGNSTSIYLEPTFNVPSSELYETFLDKQRILAWTRSAQFFNSGPKLETKEKFELFGGNVISELVSCEKDKKLVFHWKLKDWSAPFNSTIEMTFHESQEFHETKLQVKWTGIPVGEEDRVRANFEEYYVRSIKLTFGFGAVL,Effect on Hsp90 ATPase activity (in words),Hsp90,little or no effect
N terminal domain of Aha1: truncated Aha1 polypeptide of 162 aa from the N terminal MVVNNP to GNDIQV (protein) MVVNNPNNWHWVDKNCIGWAKEYFKQKLVGVEAGSVKDKKYAKIKSVSSIEGDCEVNQRKGKVISLFDLKITVLIEGHVDSKDGSALPFEGSINVPEVAFDSEASSYQFDISIFKETSELSEAKPLIRSELLPKLRQIFQQFGKDLLATHGNDIQV,Effect on Hsp90 ATPase activity (in words),Hsp90,"activate Hsp90 ATPase activity, but to a lesser extent than the full length Aha1 polypeptide"
